Experimental data published in patent publication US20130225479A1, “Methods and Compositions for Treating Inflammation” (The University of North Carolina at Chapel Hill, priority 2010, published 2013).

B1: GST-Orf63 (other)
chain: MDGTDALEKLTKGLSGGGGSLHQTKLLMEFQLRGLPVPALLNSSTTEQFLNTVAQLPTDLSKFIRDYRVFALVRAAYFLEPPSSIDPLEAARALGRLVDILSSQPPQNTAPAQPPTSDDTLNNCTLLKLLAHYADQIAGFKTPALPPVPPGIIGLFTCVEQMYHACFQKYWAAALPPMWILTYDPPTSPLQDWLIVAYGNKEGLLLPSGIPSEEVLAKTLVTEHHELFVSRSNSTETAVTMPVSKERALAIYRVFAKGEVVAENTPILAFTDVELSTLKPHYLFIYDFIIEALCKSYTYSCTQARLESFLSRGIDFMTDLGQYLDTATSGKQQLTHSQIKEIKYRLLSCGLSASACDVFRTVIMTLPYRPTPNLANLSTFMGMVHQLTMFGHYFYRCLGSYSPTGLAFTELQKILTRASAEQTERNPWRHPGISDIPLRWKISRALAFFVPPAPINTLQRVYAALPSQLMRAIFEISVKTTWGGAVPANLARDIDTGPNTQHISSTPPPTLKDVETYCQGLRVGDTEYDEDIVRSPLFADAFTKSHLLPILREVLENRLQKNRALFQIRWLIIFAAEAATGLIPARRPLARAYFHIMDILEERHSQDALYNLLDCIQELFTHIRQAVPDAQCPHAFLQSLFVFQFRPFVLKHQQGVTLFLDGLQTSLPPVISLANLGDKLCRLEFEYDSEGDFVRVPVAPPEQPPHVHLSHFKKTIQTIEQATREATVAMTTIAKPIYPAYIRLLQRLEYLNRLNHHILRIPFPQDALSELQETYLAAFARLTKLAADAANTCSYSLTKYFGVLFQHQLVPTAIVKKLLHFDEAKDTTEAFLQSLAQPVVQGQRQGAAGGSGVLTQKELELLNKINPQFTDAQANIPPSIKRSYSNKYDVPEVSVDWETYSRSAFEAPDDELRFVPLTLAGLRKLFVE
modifications: N-terminal GST fusion and C-terminal FLAG tag are not carried by the letters
notes: also called GST-tagged Orf63; purified GST-Orf63 protein; not shown: N-terminal GST of the pGex5p-1 vector with its protease-site linker; C-terminal FLAG tag
B2: GST-Orf63: purified GST-tagged Orf63 fusion protein (protein)
chain: MDGTDALEKLTKGLSGGGGSLHQTKLLMEFQLRGLPVPALLNSSTTEQFLNTVAQLPTDLSKFIRDYRVFALVRAAYFLEPPSSIDPLEAARALGRLVDILSSQPPQNTAPAQPPTSDDTLNNCTLLKLLAHYADQIAGFKTPALPPVPPGIIGLFTCVEQMYHACFQKYWAAALPPMWILTYDPPTSPLQDWLIVAYGNKEGLLLPSGIPSEEVLAKTLVTEHHELFVSRSNSTETAVTMPVSKERALAIYRVFAKGEVVAENTPILAFTDVELSTLKPHYLFIYDFIIEALCKSYTYSCTQARLESFLSRGIDFMTDLGQYLDTATSGKQQLTHSQIKEIKYRLLSCGLSASACDVFRTVIMTLPYRPTPNLANLSTFMGMVHQLTMFGHYFYRCLGSYSPTGLAFTELQKILTRASAEQTERNPWRHPGISDIPLRWKISRALAFFVPPAPINTLQRVYAALPSQLMRAIFEISVKTTWGGAVPANLARDIDTGPNTQHISSTPPPTLKDVETYCQGLRVGDTEYDEDIVRSPLFADAFTKSHLLPILREVLENRLQKNRALFQIRWLIIFAAEAATGLIPARRPLARAYFHIMDILEERHSQDALYNLLDCIQELFTHIRQAVPDAQCPHAFLQSLFVFQFRPFVLKHQQGVTLFLDGLQTSLPPVISLANLGDKLCRLEFEYDSEGDFVRVPVAPPEQPPHVHLSHFKKTIQTIEQATREATVAMTTIAKPIYPAYIRLLQRLEYLNRLNHHILRIPFPQDALSELQETYLAAFARLTKLAADAANTCSYSLTKYFGVLFQHQLVPTAIVKKLLHFDEAKDTTEAFLQSLAQPVVQGQRQGAAGGSGVLTQKELELLNKINPQFTDAQANIPPSIKRSYSNKYDVPEVSVDWETYSRSAFEAPDDELRFVPLTLAGLRKLFVE
modifications: left off: a dimerising Fc or GST; small tags and cut ends
notes: purified GST-tagged Orf63 fusion protein

Assays:
[1] = molecular target: T1, human NLRP1 (full-length) (human, UniProt Q9C000 1-1473, myc or V5 epitope tags in some assays (letters not given, left out); 35S-methionine label in the GST binding assay); test: GST binding assay on glutathione beads with in vitro translated 35S-labeled protein, phosphorimager
T1 construct: also called NLRP1-myc; NLRP1-V5
T1 sequence: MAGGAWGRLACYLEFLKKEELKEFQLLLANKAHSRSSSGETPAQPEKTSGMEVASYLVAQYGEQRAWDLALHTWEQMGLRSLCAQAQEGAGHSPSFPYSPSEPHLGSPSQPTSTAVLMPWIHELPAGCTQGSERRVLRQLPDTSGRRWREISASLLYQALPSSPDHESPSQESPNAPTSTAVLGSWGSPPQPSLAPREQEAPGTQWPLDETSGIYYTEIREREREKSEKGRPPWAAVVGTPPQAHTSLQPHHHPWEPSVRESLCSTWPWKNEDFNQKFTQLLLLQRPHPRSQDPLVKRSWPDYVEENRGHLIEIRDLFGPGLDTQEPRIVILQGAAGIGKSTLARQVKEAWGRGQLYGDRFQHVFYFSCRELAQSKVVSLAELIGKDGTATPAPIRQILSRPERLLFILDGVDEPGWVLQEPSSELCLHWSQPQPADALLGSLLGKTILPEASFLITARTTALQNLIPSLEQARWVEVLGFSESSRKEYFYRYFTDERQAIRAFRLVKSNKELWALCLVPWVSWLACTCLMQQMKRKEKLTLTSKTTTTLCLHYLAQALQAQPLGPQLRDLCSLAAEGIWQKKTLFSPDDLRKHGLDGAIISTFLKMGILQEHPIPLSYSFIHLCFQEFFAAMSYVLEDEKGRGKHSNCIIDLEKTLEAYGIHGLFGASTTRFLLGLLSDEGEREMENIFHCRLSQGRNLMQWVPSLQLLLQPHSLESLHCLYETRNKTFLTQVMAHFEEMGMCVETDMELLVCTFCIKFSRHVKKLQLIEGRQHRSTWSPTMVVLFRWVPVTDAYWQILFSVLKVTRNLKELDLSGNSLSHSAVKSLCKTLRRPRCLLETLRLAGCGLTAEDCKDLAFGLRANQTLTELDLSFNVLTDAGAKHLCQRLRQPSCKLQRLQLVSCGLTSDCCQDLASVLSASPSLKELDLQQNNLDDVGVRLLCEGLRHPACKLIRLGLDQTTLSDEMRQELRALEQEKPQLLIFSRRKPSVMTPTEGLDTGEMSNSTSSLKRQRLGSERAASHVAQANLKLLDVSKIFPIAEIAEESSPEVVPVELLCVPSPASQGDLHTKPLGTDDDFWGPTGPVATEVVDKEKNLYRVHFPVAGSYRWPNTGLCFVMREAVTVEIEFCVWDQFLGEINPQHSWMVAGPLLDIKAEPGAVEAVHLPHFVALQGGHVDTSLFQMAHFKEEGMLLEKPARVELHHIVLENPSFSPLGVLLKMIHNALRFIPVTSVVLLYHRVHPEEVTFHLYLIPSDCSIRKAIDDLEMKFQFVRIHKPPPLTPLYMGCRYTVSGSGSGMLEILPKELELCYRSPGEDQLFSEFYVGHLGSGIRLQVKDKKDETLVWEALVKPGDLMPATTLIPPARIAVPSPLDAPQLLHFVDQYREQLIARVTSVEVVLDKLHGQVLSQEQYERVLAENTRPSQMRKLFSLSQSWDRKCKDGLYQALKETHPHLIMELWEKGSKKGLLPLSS

NLRP3 = molecular target: T2, NLRP3 (Homo sapiens, UniProt Q96P20); test: GST binding assay with 35S-methionine-labeled NLRP3; settings: purified GST-Orf63 on glutathione beads
T2 construct: primers designed to the open reading frames of procaspase-1, pro-IL-1beta, NOD1, NOD2, and NLRP3; expressed in transfected cells; host or cells: 293T
T2 sequence (Q96P20 whole entry): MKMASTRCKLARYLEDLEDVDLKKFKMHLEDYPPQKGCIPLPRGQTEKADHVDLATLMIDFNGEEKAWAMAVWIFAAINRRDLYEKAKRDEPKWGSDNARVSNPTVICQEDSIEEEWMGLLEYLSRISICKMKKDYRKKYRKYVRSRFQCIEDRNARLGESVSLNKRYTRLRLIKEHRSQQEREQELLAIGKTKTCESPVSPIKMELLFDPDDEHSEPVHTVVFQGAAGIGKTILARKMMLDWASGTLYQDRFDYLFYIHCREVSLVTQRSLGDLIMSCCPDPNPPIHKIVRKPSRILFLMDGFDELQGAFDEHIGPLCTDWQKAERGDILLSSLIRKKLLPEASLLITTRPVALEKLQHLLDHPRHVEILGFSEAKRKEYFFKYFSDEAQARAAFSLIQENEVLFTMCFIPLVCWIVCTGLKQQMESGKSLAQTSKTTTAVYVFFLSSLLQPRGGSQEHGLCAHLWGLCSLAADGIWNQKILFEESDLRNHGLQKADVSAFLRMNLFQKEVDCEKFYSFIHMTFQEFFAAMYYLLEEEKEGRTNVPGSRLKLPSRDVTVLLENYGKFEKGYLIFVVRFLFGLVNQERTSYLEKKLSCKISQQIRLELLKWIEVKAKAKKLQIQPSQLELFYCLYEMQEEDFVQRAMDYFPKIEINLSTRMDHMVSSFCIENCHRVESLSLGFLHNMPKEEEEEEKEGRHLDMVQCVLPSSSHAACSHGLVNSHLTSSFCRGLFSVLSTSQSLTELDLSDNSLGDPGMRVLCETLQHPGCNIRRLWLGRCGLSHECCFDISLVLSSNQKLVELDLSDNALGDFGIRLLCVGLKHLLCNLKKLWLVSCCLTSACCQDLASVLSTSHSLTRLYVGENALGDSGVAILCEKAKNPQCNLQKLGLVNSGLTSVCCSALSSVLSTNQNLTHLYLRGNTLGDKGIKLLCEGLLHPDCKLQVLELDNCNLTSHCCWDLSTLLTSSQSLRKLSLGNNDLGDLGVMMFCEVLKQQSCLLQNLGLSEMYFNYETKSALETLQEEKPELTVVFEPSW
Procedure: (§1) In-vitro transcription/translation: [^35S]-methionine (Perkin-Elmer) labeled NLRP1, NLRP3 and control luciferase proteins were prepared using TnT T7 Quick Coupled Transcription/Translation System (Promega) according to manufacturer's instructions. pcDNA3-NLRP1 and pcDNA3-NLRP3 plasmids were used for the transcription/translation reaction.
(§2) GST binding Assay: Expression and purification of GST fusion proteins were performed as previously described (29) and equal amounts of GST and GST-Orf63 were bound to glutathione beads (29). Equivalent amounts (1×10^5 cpm) of ^35S-methionine labeled NLRP1, NLRP3 and luciferase proteins were incubated with the GST and GST-Orf63 bound protein in NETN+ buffer plus protease inhibitors for an hour at 4° C. NETN+ buffer comprised of 20 mM Tris (pH 7.5), 100 mM NaCl, 1 mM EDTA, 0.1% NP-40, 1 mM DTT. The bound complexes were washed five times (5 minute washes) in NETN+ buffer. The samples were subjected to SDS-PAGE. The gel was fixed, dried and exposed to a phosphoimager.

NLRP1 = molecular target: T3, NLRP1 (Homo sapiens, UniProt Q9C000); test: GST binding assay with 35S-methionine-labeled NLRP1; settings: purified GST-Orf63 on glutathione beads
T3 construct: host or cells: cell-free coupled transcription/translation
T3 sequence (Q9C000 1-1473): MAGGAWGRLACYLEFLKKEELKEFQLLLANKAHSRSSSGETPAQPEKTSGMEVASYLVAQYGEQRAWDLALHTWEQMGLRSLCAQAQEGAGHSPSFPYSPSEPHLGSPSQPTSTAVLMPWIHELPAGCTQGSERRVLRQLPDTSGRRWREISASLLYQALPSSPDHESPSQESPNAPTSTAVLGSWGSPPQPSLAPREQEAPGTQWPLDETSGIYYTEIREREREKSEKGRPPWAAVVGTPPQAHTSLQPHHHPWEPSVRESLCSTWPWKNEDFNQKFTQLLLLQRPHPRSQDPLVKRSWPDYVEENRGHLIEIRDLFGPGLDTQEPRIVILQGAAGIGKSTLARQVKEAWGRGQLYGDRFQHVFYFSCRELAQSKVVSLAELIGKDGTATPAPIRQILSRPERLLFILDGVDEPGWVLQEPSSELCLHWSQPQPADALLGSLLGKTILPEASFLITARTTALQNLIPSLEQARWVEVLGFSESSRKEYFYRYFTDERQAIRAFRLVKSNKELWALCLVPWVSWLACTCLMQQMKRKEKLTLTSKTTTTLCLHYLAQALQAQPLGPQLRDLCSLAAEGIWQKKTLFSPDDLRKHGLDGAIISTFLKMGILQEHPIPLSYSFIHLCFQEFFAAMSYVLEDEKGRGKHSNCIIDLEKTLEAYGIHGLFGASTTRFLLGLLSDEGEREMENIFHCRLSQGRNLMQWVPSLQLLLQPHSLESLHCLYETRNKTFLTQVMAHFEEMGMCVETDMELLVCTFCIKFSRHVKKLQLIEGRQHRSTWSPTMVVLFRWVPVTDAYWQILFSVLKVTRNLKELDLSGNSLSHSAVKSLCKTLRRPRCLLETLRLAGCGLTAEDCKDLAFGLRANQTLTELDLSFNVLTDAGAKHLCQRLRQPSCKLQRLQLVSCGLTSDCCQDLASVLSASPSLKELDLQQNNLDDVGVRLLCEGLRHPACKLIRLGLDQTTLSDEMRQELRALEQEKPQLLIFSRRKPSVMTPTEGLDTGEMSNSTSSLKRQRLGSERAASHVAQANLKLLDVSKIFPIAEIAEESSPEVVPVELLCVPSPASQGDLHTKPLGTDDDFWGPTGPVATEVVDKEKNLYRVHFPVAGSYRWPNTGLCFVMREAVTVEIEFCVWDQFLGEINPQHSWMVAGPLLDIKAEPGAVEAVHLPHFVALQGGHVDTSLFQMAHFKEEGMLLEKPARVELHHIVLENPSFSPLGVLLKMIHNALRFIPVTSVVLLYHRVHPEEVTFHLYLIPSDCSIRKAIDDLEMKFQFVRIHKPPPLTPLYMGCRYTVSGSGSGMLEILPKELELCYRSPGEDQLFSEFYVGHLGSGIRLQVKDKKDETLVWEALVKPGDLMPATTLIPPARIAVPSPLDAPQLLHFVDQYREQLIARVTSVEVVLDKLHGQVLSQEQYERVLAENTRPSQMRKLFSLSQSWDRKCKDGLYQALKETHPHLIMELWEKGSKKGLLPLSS
Procedure: as §1, §2

| Molecule | binding result [1] | binding of 35S-methionine-labeled NLRP3 (NLRP3) | binding of 35S-methionine-labeled NLRP1 (NLRP1) |
| --- | --- | --- | --- |
| B1 | binds |  |  |
| B2 |  | bound | bound |
